Patent US20240035036A1 (UNIVERSITE DE GENEVE, published 2024)

What was measured:
[1] = molecular target: T1, Flagellin Modification Protein (FlmG) from Caulobacter crescentus (Caulobacter crescentus, UniProt P21296 1-596); assay: summary of example 1 (BACTH and domain analysis)
T1 construct: Natural full-length glycosyltransferase, expressed in cells (C. crescentus, S. fredii NGR234, E. coli); It has an N-terminal TPR domain and a C-terminal GT-B-like glycosyltransferase domain; also called FlbA; CC_1457
T1 sequence: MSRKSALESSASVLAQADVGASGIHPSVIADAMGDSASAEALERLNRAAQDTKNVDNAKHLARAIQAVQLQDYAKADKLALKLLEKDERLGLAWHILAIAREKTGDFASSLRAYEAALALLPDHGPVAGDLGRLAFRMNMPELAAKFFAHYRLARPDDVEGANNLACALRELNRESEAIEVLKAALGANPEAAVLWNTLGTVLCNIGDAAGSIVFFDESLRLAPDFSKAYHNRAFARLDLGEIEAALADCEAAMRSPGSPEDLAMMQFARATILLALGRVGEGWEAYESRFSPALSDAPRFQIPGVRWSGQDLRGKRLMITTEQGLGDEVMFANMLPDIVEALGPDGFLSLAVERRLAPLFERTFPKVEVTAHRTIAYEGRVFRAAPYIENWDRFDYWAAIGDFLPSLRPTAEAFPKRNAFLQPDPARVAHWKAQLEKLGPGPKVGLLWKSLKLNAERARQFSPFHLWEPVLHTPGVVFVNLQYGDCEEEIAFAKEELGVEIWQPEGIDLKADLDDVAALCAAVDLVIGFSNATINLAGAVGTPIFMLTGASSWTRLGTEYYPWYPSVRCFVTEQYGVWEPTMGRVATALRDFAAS

[2] = molecular target: T2, FljK flagellin protein from Caulobacter crescentus
T2 chain: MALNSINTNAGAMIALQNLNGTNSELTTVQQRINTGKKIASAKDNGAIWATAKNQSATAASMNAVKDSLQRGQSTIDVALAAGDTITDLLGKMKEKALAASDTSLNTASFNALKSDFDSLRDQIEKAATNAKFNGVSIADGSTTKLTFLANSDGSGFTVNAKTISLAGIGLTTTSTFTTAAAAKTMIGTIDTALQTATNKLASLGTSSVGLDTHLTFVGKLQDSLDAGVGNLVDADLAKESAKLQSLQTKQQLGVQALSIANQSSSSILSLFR

B1: FljK flagellin protein from Caulobacter crescentus (other)
chain: T2 chain
notes: In the glycosylation experiments it was expressed unfused in cells; also called CC_1461
- binding result [1]: binds

B2: Flagellin Modification Protein (FlmG) from Caulobacter crescentus (protein)
chain: T1 sequence
- FljK glycosylation (migration on anti-FljK immunoblot) in E. coli co-expressing FljK, FlmG and the synthetic flm operon [2]: in the presence of pUCITD-flm FljK migration is shifted towards higher molecular weight, as in Caulobacter crescentus wild-type (WT) cells
- flagellin modification (SDS-PAGE mobility shift of FljK by immunoblot) on co-expression in S. fredii NGR234 [2]: upon co-expression of FlmG, FljK shifted to a species with higher molecular mass
